This passage reports ka and kd results from US11214614B2, “LTBP complex-specific inhibitors of TGFβ and uses thereof” (Scholar Rock, Inc., priority 2019, dated 2022).

The labels stand for the following.
B1: SR-AB48-HuFab (antibody, V domains shown)
VH: QVQLVESGGGVVQPGRSLRLSCAASGFTFRSYVMHWVRQAPGKGLEWVAVISHEGSGKYYADSVKGRFTISRDNSKNTLYLQMNSLRAEDTAVYYCARPRIAARRGGFGSWGQGTLVTVSS
VL: NFMLTQPHSVSESPGKTVTISCTRSSGNIDYNYVQWYQQRPGSSPTTVIYEDNVRPSGVPDRFSGSIDSSSNSASLTISGLKTEDEADYYCQSYDYDTQGVVFGGGTKLTVL
B2: SR-AB49-HuFab (antibody, V domains shown)
VH: QVQLVESGGGVVQPGRSLRLSCAASGFTFRSYVMHWVRQAPGKGLEWVAVISHEGSGKYYADSVKGRFTISRDNSKNTLYLQMNSLRAEDTAVYYCARPRIAARRGGFGSWGQGTLVTVSS
VL: NFMLTQPHSVSESPGKTVTISCTRSSGNIDYNYVQWYQQRPGSSPTTVIYEDNVRPSGVPDRFSGSIDSSSNSASLTISGLKTEDEADYYCQGYDWDTQGVVFGGGTKLTVL
B3: SR-AB53-HuFab (antibody, V domains shown)
VH: QVQLVESGGGVVQPGRSLRLSCAASGFTFRSYVMHWVRQAPGKGLEWVAVISHEGSGKYYADSVKGRFTISRDNSKNTLYLQMNSLRAEDTAVYYCARPRIAARRGGFGTWGQGTLVTVSS
VL: NFMLTQPHSVSESPGKTVTISCTRSSGNIDYNYVQWYQQRPGSSPTTVIYEDNVRPSGVPDRFSGSIDSSSNSASLTISGLKTEDEADYYCQGYDWDTQGVVFGGGTKLTVL
B4: SR-AB50-HuFab (antibody, V domains shown)
VH: QVQLVESGGGVVQPGRSLRLSCAASGFTFRSYVMHWVRQAPGKGLEWVAVISHEGSGKYYADSVKGRFTISRDNSKNTLYLQMNSLRAEDTAVYYCARPRIAARRGGFGTWGQGTLVTVSS
VL: NFMLTQPHSVSESPGKTVTISCTRSSGNIDYNYVQWYQQRPGSSPTTVIYEDNVRPSGVPDRFSGSIDSSSNSASLTISGLKTEDEADYYCQSYDSDNQRVVFGGGTKLTVL
B5: SR-AB60-HuFab (antibody, V domains shown)
VH: QVQLVESGGGVVQPGRSLRLSCAASGFTFRSYVMHWVRQAPGKGLEWVAVISHEGSGKYYADSVKGRFTISRDNSKNTLYLQMNSLRAEDTAVYYCALPRIAARRGGFGTWGQGTLVTVSS
VL: NFMLTQPHSVSESPGKTVTISCTRSSGNIDYNYVQWYQQRPGSSPTTVIYEDNVRPSGVPDRFSGSIDSSSNSASLTISGLKTEDEADYYCQSYDYDTQGVVFGGGTKLTVL
B6: SR-AB55-HuFab (antibody, V domains shown)
VH: QVQLVESGGGVVQPGRSLRLSCAASGFTFRSYVMHWVRQAPGKGLEWVAVISHEGSGKYYADSVKGRFTISRDNSKNTLYLQMNSLRAEDTAVYYCALPRIAARRGGFGSWGQGTLVTVSS
VL: NFMLTQPHSVSESPGKTVTISCTRSSGNIDYNYVQWYQQRPGSSPTTVIYEDNVRPSGVPDRFSGSIDSSSNSASLTISGLKTEDEADYYCQSYDYDNQAVVFGGGTKLTVL
B7: SR-AB52-HuFab (antibody, V domains shown)
VH: QVQLVESGGGVVQPGRSLRLSCAASGFTFRSYVMHWVRQAPGKGLEWVAVISHEGSGKYYADSVKGRFTISRDNSKNTLYLQMNSLRAEDTAVYYCARPRIAARRGGFGTWGQGTLVTVSS
VL: NFMLTQPHSVSESPGKTVTISCTRSSGNIDYNYVQWYQQRPGSSPTTVIYEDNVRPSGVPDRFSGSIDSSSNSASLTISGLKTEDEADYYCQSYDYDTQGVVFGGGTKLTVL
B8: SR-AB58-HuFab (antibody, V domains shown)
VH: QVQLVESGGGVVQPGRSLRLSCAASGFTFRSYVMHWVRQAPGKGLEWVAVISHEGSGKYYADSVKGRFTISRDNSKNTLYLQMNSLRAEDTAVYYCALPRIAARRGGFGTWGQGTLVTVSS
VL: NFMLTQPHSVSESPGKTVTISCTRSSGNIDYNYVQWYQQRPGSSPTTVIYEDNVRPSGVPDRFSGSIDSSSNSASLTISGLKTEDEADYYCQSYDSDNQRVVFGGGTKLTVL
B9: SR-AB46-HuFab (antibody, V domains shown)
VH: QVQLVESGGGVVQPGRSLRLSCAASGFTFRSYVMHWVRQAPGKGLEWVAVISHEGSGKYYADSVKGRFTISRDNSKNTLYLQMNSLRAEDTAVYYCARPRIAARRGGFGSWGQGTLVTVSS
VL: NFMLTQPHSVSESPGKTVTISCTRSSGNIDYNYVQWYQQRPGSSPTTVIYEDNVRPSGVPDRFSGSIDSSSNSASLTISGLKTEDEADYYCQSYDSDNQRVVFGGGTKLTVL
B10: SR-AB54-HuFab (antibody, V domains shown)
VH: QVQLVESGGGVVQPGRSLRLSCAASGFTFRSYVMHWVRQAPGKGLEWVAVISHEGSGKYYADSVKGRFTISRDNSKNTLYLQMNSLRAEDTAVYYCALPRIAARRGGFGSWGQGTLVTVSS
VL: NFMLTQPHSVSESPGKTVTISCTRSSGNIDYNYVQWYQQRPGSSPTTVIYEDNVRPSGVPDRFSGSIDSSSNSASLTISGLKTEDEADYYCQSYDSDNQRVVFGGGTKLTVL
B11: SR-AB51-HuFab (antibody, V domains shown)
VH: QVQLVESGGGVVQPGRSLRLSCAASGFTFRSYVMHWVRQAPGKGLEWVAVISHEGSGKYYADSVKGRFTISRDNSKNTLYLQMNSLRAEDTAVYYCARPRIAARRGGFGTWGQGTLVTVSS
VL: NFMLTQPHSVSESPGKTVTISCTRSSGNIDYNYVQWYQQRPGSSPTTVIYEDNVRPSGVPDRFSGSIDSSSNSASLTISGLKTEDEADYYCQSYDYDNQAVVFGGGTKLTVL
B12: SR-AB59-HuFab (antibody, V domains shown)
VH: QVQLVESGGGVVQPGRSLRLSCAASGFTFRSYVMHWVRQAPGKGLEWVAVISHEGSGKYYADSVKGRFTISRDNSKNTLYLQMNSLRAEDTAVYYCALPRIAARRGGFGTWGQGTLVTVSS
VL: NFMLTQPHSVSESPGKTVTISCTRSSGNIDYNYVQWYQQRPGSSPTTVIYEDNVRPSGVPDRFSGSIDSSSNSASLTISGLKTEDEADYYCQSYDYDNQAVVFGGGTKLTVL
B13: SR-AB56-HuFab (antibody, V domains shown)
VH: QVQLVESGGGVVQPGRSLRLSCAASGFTFRSYVMHWVRQAPGKGLEWVAVISHEGSGKYYADSVKGRFTISRDNSKNTLYLQMNSLRAEDTAVYYCALPRIAARRGGFGSWGQGTLVTVSS
VL: NFMLTQPHSVSESPGKTVTISCTRSSGNIDYNYVQWYQQRPGSSPTTVIYEDNVRPSGVPDRFSGSIDSSSNSASLTISGLKTEDEADYYCQSYDYDTQGVVFGGGTKLTVL
B14: SR-AB61-HuFab (antibody, V domains shown)
VH: QVQLVESGGGVVQPGRSLRLSCAASGFTFRSYVMHWVRQAPGKGLEWVAVISHEGSGKYYADSVKGRFTISRDNSKNTLYLQMNSLRAEDTAVYYCALPRIAARRGGFGTWGQGTLVTVSS
VL: NFMLTQPHSVSESPGKTVTISCTRSSGNIDYNYVQWYQQRPGSSPTTVIYEDNVRPSGVPDRFSGSIDSSSNSASLTISGLKTEDEADYYCQGYDWDTQGVVFGGGTKLTVL
B15: SR-AB57-HuFab (antibody, V domains shown)
VH: QVQLVESGGGVVQPGRSLRLSCAASGFTFRSYVMHWVRQAPGKGLEWVAVISHEGSGKYYADSVKGRFTISRDNSKNTLYLQMNSLRAEDTAVYYCALPRIAARRGGFGSWGQGTLVTVSS
VL: NFMLTQPHSVSESPGKTVTISCTRSSGNIDYNYVQWYQQRPGSSPTTVIYEDNVRPSGVPDRFSGSIDSSSNSASLTISGLKTEDEADYYCQGYDWDTQGVVFGGGTKLTVL

huLTBP1 proTGFβ1, sequence (P01137 30-390): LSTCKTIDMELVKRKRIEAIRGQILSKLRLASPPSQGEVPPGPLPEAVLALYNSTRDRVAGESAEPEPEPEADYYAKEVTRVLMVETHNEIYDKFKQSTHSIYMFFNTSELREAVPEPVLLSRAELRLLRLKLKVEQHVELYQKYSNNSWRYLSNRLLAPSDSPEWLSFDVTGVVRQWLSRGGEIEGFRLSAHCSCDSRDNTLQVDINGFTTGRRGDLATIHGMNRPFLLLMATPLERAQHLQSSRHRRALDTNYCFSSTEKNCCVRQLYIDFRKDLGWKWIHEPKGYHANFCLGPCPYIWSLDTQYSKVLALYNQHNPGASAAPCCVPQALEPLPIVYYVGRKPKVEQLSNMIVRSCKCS
huLTBP1 proTGFβ1, sequence (Q14766 347-1721 limits assumed): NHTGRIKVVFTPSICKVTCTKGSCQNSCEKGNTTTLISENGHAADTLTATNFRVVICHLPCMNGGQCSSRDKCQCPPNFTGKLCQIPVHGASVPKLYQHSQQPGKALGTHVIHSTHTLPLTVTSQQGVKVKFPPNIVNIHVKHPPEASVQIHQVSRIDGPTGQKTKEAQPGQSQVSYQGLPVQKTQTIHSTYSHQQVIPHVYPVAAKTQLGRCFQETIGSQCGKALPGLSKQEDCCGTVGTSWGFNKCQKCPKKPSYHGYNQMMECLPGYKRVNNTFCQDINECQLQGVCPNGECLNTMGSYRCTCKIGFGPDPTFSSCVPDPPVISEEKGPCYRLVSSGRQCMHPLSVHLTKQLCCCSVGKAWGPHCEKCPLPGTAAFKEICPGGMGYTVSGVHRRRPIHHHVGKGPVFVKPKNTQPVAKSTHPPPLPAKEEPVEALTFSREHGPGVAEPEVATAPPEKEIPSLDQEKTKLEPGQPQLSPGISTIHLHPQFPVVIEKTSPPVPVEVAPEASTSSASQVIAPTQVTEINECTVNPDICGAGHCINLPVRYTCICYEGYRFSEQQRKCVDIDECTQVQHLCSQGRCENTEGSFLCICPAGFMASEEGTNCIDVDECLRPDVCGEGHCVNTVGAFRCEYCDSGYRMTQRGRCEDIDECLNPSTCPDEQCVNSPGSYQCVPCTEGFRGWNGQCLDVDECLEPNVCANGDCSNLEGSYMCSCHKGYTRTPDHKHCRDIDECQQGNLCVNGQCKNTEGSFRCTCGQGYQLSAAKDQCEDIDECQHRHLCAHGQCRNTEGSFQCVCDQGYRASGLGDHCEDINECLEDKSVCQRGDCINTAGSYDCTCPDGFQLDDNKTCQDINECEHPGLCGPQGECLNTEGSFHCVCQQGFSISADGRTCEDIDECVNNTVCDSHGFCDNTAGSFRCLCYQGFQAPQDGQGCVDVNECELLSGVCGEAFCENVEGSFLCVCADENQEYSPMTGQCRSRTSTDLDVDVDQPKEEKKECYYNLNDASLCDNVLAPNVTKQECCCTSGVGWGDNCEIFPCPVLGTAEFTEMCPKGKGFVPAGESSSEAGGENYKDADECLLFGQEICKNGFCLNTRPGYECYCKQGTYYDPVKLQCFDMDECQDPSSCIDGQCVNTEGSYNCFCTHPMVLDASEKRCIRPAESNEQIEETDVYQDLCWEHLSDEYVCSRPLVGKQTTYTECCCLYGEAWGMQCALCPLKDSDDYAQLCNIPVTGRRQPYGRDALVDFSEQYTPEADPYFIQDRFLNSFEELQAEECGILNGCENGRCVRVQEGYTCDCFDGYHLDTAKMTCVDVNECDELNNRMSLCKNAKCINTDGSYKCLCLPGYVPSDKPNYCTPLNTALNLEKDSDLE

This experiment addresses huLTBP1 proTGFβ1 (Homo sapiens, UniProt P01137+Q14766). Description: SPR (Biacore 8K) monovalent binding kinetics of Fabs, biotinylated antigen captured. Details: biotin (complex biotinylated). Particulars: Fab, huLTBP1 proTGFβ1; SR-AB42-HuFab average of five, SR-AB63-HuFab average of four replicate experiments. How it is done:
A Biacore 8K system was employed to determine the monovalent binding affinity and the kinetic parameters for antigen binding of test antibodies. Association and dissociation kinetics of Fab fragments SR-AB42-HuFab, SR-AB63-HuFab and SR-AB43-HuFab to antigen complexes were measured, and resulting ka, kd and KD are provided below. Briefly, the binding kinetics were evaluated by surface plasmon resonance using Biacore 8K (GE Healthcare). Biotinylated capture antigens were immobilized to the chip (10 nM, ˜200 RU loading). A Biotin CAPture sensor chip was used to capture the biotinylated antigens. Fabs at 10, 5, 2.5, 1.25, and 0.6 nM concentrations were injected over the captured antigens. 0 nM was used as a reference. Affinities of LTBP antibodies to GARP and LRRC33 were confirmed using higher concentration of Fabs (100, 50, 25, 12.5, 6.25 nM). 0 nM was used as a reference. Multi-cycle kinetics was employed where each analyte concentration was injected in a separate cycle and the sensor chip surface was regenerated after each cycle. All the assays were carried out in freshly prepared 1×HBS-EP+buffer (10 mM HEPES, 150 mM NaCl, 3 mM EDTA, 0.05% Tween20, pH 7.4). Data were fit globally to a 1:1 binding model to obtain the kinetic parameters. The sensorgram for 0 nM analyte concentration was used as reference.
• 96 well plates—Greinerbio-one REF 650101 • Microplate Foils—GE Healthcare—CAT #28-9758-16 • Biotin CAPture Kit GE Healthcare product number 28920233 • Biacore running buffer—supplied as a 20× solution, diluted in Milli-Q water, TEKnova CAT #H8022 Method:
These experiments were performed using the Biacore 8K using the method “multi-cycle kinetics/affinity using Biotin CAPture kit.”
Data collection rate was set to 10 Hz and the Biotin CAPture step was performed for 300 seconds with a flow rate of 2 μL/minute. The Biotin CAPture reagent was used after a 1:5 dilution in 1× Biacore running buffer. Biotinylated ligands (the various complexes of TGFβ1) were utilized at a concentration of 10 nM and were immobilized to the sensor chip for 180 seconds with a flow rate of 10 μL/minute. The analytes, which are each of the Fabs, were tested at 10, 5, 2.5, 1.25, and 0.625 nM with a 0 nM control included. Analyte contact time was 120 seconds and the dissociation time was 900 seconds. The regeneration cycle utilized was 120 seconds with a flow rate of 10 μL/minute.
The evaluation method used was “multi-cycle affinity using capture” and a 1:1 binding model was used. […] Global fits were utilized for every KD determination.
Molecule B1 yielded a ka of 1.76e+06 M⁻¹ s⁻¹ and a kd of 0.000104 s⁻¹.
On the same counts, the results for B2 are 809000 M⁻¹ s⁻¹ and 0.000138 s⁻¹.
The molecule B3 gave a ka of 1.82e+06 M⁻¹ s⁻¹ and a kd of 0.000128 s⁻¹.
For B4 the same measures were 3.31e+06 M⁻¹ s⁻¹ and 0.000182 s⁻¹.
For B5 the same measures were 2.35e+06 M⁻¹ s⁻¹ and 0.00012 s⁻¹.
For B6 the same measures were 862000 M⁻¹ s⁻¹ and 0.000113 s⁻¹.
Regarding B7, the ka turned out to be 2.5e+06 M⁻¹ s⁻¹ and the kd worked out at 9.91e-05 s⁻¹.
For B8 the same measures were 3.11e+06 M⁻¹ s⁻¹ and 0.000162 s⁻¹.
For B9 the same measures were 2.47e+06 M⁻¹ s⁻¹ and 0.00011 s⁻¹.
On the same counts, the results for B10 are 1.8e+06 M⁻¹ s⁻¹ and 8.83e-05 s⁻¹.
Consider B11, for which the ka was determined as 2.55e+06 M⁻¹ s⁻¹ and the kd was 0.00015 s⁻¹.
For B12 the same measures were 2.55e+06 M⁻¹ s⁻¹ and 0.00013 s⁻¹.
On the same counts, the results for B13 are 2.58e+06 M⁻¹ s⁻¹ and 0.000126 s⁻¹.
For B14 the same measures were 1.17e+06 M⁻¹ s⁻¹ and 0.000155 s⁻¹.
The molecule B15 had a ka of 1.35e+06 M⁻¹ s⁻¹ and a kd of 0.000181 s⁻¹.
